Results reported in publication PMC8463545.

Tests used:
Assay in all cases: SPR
Conditions in all cases: EMSA: 10 mM Tris-HCl pH 7.5, 50 mM KCl, 1 mM DTT, 0.4% glycerol, 20 uL, 28 C, 25-30 min; 5% native gel, 0.5x TBE, 4 C; SPR conditions not given
[1] = tested on: HtsH1C-Flag-His (Lysobacter enzymogenes OH11)
[2] = tested on: HtsH2C-HA-His (Lysobacter enzymogenes OH11)
[3] = tested on: HtsH3C-Myc-His (Lysobacter enzymogenes OH11)

plafB (SPR)
Kd [1]: 536 nM | Kd [2]: 1380 nM | Kd [3]: 249 nM
